The results in this text go back to PMC5529715.

As a reminder, the stoichiometry N is a count of units in the complex or per binding partner.

In this assay the target is MBP-A3H hap II (APOBEC3H haplotype II, splicing variant SV182, MBP fusion) (human). The experiment in a line: SEC-MALS.

In the case of “MBP-A3H hap II (APOBEC3H haplotype II, splicing variant SV182, MBP fusion) (enzyme)”, the stoichiometry N was 14 to 15 monomers.
